This is an account of results in paper PMC9794699.

Assay [1] has as its target low-density lipoprotein receptor-related protein 1 (LRP1), endogenous in WI38 lung fibroblasts (human (endogenous in WI38)) (UniProt Q07954).
Assay [2] has the same target. The source holds these as a separate data set.

Chain of UniProt Q07954 (Q07954 20-4544): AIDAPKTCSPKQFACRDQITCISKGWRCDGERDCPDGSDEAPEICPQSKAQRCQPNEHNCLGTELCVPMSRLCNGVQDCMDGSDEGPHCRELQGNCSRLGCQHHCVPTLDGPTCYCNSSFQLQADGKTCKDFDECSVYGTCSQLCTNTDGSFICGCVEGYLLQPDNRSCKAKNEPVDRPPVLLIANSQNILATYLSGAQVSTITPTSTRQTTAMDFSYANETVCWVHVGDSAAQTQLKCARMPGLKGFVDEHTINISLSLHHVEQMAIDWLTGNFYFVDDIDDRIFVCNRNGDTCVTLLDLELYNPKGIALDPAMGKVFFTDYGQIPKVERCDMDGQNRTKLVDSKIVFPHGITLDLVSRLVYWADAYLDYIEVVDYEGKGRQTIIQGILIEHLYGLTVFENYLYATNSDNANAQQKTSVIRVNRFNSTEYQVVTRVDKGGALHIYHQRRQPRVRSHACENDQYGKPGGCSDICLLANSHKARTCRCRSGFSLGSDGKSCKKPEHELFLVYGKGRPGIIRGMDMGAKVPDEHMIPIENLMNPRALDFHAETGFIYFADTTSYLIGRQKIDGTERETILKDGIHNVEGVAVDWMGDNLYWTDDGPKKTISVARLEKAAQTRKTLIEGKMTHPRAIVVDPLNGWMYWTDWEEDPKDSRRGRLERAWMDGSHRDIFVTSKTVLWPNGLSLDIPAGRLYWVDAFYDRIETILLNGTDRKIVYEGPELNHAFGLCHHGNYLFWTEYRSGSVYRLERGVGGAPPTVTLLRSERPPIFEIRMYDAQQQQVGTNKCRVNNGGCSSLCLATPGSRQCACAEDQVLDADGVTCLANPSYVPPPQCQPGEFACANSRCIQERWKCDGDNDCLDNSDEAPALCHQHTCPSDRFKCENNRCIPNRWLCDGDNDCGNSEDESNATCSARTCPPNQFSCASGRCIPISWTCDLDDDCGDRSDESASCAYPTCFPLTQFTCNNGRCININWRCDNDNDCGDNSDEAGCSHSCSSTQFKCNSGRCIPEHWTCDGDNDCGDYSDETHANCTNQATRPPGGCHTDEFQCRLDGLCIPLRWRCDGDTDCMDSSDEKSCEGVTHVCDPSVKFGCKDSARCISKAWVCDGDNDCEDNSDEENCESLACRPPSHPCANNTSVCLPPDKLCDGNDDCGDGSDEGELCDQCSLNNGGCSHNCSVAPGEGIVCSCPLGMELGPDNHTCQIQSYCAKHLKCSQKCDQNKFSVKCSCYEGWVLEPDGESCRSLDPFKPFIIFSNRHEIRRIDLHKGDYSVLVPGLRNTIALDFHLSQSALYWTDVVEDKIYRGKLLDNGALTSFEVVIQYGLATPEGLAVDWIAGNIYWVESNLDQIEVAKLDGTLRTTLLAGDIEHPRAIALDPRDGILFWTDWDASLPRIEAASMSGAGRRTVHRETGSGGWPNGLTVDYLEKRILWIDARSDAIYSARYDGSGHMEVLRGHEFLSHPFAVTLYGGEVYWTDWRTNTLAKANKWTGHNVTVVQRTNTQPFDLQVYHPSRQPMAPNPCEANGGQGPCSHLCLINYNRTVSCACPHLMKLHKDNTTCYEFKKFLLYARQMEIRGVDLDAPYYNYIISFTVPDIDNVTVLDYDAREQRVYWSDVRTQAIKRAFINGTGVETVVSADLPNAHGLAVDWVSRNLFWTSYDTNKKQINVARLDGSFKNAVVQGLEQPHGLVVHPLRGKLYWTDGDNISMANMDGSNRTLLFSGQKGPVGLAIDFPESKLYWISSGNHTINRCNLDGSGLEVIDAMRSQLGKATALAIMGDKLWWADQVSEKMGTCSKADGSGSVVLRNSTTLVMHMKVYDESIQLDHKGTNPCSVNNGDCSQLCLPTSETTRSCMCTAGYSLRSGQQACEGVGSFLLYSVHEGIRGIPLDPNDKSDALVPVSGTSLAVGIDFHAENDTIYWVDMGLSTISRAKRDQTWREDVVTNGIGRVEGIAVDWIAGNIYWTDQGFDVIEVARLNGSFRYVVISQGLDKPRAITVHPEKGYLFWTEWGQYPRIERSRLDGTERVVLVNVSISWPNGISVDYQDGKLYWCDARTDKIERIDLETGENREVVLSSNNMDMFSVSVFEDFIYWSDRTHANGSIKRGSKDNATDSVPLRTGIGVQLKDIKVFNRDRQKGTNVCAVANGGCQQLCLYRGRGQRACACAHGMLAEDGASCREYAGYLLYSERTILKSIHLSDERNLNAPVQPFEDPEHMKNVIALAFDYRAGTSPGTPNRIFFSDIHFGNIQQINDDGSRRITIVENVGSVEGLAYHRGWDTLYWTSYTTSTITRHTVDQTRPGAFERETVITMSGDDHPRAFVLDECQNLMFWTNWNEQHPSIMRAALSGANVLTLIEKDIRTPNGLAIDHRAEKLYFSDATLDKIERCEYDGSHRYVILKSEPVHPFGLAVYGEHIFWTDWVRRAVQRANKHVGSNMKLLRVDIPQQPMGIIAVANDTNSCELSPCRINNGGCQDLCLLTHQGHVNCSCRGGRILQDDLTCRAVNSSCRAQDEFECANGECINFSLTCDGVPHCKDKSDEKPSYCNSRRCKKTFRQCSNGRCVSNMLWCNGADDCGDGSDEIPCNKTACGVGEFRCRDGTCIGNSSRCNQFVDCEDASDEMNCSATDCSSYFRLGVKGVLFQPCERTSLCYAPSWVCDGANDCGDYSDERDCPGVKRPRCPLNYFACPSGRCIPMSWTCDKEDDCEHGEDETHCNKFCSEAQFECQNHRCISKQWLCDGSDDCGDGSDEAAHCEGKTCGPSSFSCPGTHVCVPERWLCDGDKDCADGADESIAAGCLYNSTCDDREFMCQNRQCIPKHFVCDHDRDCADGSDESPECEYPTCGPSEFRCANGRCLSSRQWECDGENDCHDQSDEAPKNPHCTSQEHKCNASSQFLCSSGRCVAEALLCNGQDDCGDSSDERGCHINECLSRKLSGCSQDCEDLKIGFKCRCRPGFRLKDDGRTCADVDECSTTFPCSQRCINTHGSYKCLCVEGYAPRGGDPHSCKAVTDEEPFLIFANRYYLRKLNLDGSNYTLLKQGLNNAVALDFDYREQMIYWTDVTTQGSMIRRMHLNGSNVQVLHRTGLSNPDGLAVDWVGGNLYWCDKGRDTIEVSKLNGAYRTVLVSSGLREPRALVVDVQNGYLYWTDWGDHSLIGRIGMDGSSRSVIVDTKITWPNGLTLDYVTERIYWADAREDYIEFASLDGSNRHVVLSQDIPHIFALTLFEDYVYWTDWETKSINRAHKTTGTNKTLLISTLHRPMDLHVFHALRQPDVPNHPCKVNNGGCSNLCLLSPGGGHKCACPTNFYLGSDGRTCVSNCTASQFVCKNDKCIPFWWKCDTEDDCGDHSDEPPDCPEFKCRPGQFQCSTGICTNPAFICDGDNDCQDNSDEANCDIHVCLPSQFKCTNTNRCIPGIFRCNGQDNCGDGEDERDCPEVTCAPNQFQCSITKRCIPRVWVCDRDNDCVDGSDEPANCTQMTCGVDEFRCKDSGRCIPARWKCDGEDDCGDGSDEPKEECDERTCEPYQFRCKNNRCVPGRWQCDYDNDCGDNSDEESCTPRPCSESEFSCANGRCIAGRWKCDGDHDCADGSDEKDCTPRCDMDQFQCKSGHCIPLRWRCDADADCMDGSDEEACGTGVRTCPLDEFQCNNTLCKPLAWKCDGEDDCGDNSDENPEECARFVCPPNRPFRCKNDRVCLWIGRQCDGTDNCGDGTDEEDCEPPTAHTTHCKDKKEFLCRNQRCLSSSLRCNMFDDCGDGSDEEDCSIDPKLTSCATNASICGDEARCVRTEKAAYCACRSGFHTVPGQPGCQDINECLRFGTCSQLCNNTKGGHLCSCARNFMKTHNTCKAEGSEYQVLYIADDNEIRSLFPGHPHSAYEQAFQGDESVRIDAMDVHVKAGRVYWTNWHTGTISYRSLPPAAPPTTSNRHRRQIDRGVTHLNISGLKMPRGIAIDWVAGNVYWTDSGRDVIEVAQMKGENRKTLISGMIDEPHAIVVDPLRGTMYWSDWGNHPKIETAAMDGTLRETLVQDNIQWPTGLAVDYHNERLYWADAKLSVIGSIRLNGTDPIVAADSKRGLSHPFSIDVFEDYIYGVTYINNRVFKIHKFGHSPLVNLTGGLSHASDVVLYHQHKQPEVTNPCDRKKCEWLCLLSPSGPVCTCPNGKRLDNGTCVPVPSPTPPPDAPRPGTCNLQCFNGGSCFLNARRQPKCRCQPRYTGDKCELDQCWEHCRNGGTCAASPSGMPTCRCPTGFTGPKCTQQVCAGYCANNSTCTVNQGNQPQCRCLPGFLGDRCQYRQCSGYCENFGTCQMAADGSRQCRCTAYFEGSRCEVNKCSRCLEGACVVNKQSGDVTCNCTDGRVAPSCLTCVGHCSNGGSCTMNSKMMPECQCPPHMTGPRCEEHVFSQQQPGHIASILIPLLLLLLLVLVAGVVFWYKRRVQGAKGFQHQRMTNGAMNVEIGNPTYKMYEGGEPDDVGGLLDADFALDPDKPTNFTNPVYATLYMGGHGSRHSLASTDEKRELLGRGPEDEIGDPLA

“PRSS2 (serine protease PRSS2, wild type), ectopically expressed in 293T cells (from UniProt P07478 16-247) (enzyme)”: the repression of Tsp-1 protein (western blot) in mock-transfected WI38 fibroblasts treated with CM from 293T cells expressing PRSS2 in assay [1] was 58%. In assay [2], this substance displayed a Rac-GTPase activity (G-LISA) in WI38 cells treated with CM from 293T cells expressing PRSS2, compared to CM from empty vector-transfected cells of 2 fold and a Rho-GTPase activity (G-LISA) in WI38 cells treated with PRSS2 CM (fold decrease) of 3.2.
